The values that follow come from patent US20050002904A1, “Uses of vascular endothelial growth factor and type I collagen inducible protein (VCIP)” (priority 2003, published 2005).

For the assay, the system named is VCIP. As to the kind of experiment: VCIP mRNA induction by growth factors and cytokines in monolayer cells. In kind it is cell-based, human. The settings on record: 6 h, northern blot. How it is done: FIGS. 1A-M show expression analysis and predicted amino acid sequence of VEGF and type I collagen inducible protein (VCIP). FIG. 1A: HUVECs were embedded into three-dimensional type I collagen gel in the presence of 20% adult human serum, 1× ITS and stimulated with VEGF^165 (100 ng/ml). Total RNA was prepared at the indicated time points. Northern blots were hybridized with a fragment of the VCIP (clone-33A) cDNA probe. The transcript size (3.4 kb) is indicated on the right. The numbers at the bottom of the gel represent the fold increase in VCIP mRNA levels, as compared with untreated cells. […] Total RNA was isolated at indicated time points and subjected to VCIP northern blot analysis. […] FIG. 1E: Poly(A)^+ RNA prepared from various human tissues was subjected to VCIP northern blot analysis by hybridization with the clone-33A cDNA probe. FIG. 1F: The blot shown in FIG. 1E was re-hybridized with a GAPDH probe, showing that equal amounts of RNA were loaded across the lanes. FIG. 1G: Detection of VCIP mRNA by RT-PCR (20 cycles): monolayer endothelial cells were treated for 30 min with: (1) untreated, (2) bFGF (20 ng/ml), (3) VEGF^165 (100 ng/ml), (4) PMA (20 ng/ml), (5) bFGF (20 ng/ml)+VEGF (100 ng/ml), (6) bFGF (20 ng/ml)+PMA (20 ng/ml), (7) VEGF (100 ng/ml)+PMA (20 ng/ml) and (8) bFGF (20 ng/ml)+VEGF (100 ng/ml)+PMA (20 ng/ml). […]

B1: EGF: growth factor (protein, UniProt P01133 23-1207, looked up)
Pro-epidermal growth factor: PQHWSCPEGTLAGNGNSTCVGPAPFLIFSHGNSIFRIDTEGTNYEQLVVDAGVSVIMDFHYNEKRIYWVDLERQLLQRVFLNGSRQERVCNIEKNVSGMAINWINEEVIWSNQQEGIITVTDMKGNNSHILLSALKYPANVAVDPVERFIFWSSEVAGSLYRADLDGVGVKALLETSEKITAVSLDVLDKRLFWIQYNREGSNSLICSCDYDGGSVHISKHPTQHNLFAMSLFGDRIFYSTWKMKTIWIANKHTGKDMVRINLHSSFVPLGELKVVHPLAQPKAEDDTWEPEQKLCKLRKGNCSSTVCGQDLQSHLCMCAEGYALSRDRKYCEDVNECAFWNHGCTLGCKNTPGSYYCTCPVGFVLLPDGKRCHQLVSCPRNVSECSHDCVLTSEGPLCFCPEGSVLERDGKTCSGCSSPDNGGCSQLCVPLSPVSWECDCFPGYDLQLDEKSCAASGPQPFLLFANSQDIRHMHFDGTDYGTLLSQQMGMVYALDHDPVENKIYFAHTALKWIERANMDGSQRERLIEEGVDVPEGLAVDWIGRRFYWTDRGKSLIGRSDLNGKRSKIITKENISQPRGIAVHPMAKRLFWTDTGINPRIESSSLQGLGRLVIASSDLIWPSGITIDFLTDKLYWCDAKQSVIEMANLDGSKRRRLTQNDVGHPFAVAVFEDYVWFSDWAMPSVMRVNKRTGKDRVRLQGSMLKPSSLVVVHPLAKPGADPCLYQNGGCEHICKKRLGTAWCSCREGFMKASDGKTCLALDGHQLLAGGEVDLKNQVTPLDILSKTRVSEDNITESQHMLVAEIMVSDQDDCAPVGCSMYARCISEGEDATCQCLKGFAGDGKLCSDIDECEMGVPVCPPASSKCINTEGGYVCRCSEGYQGDGIHCLDIDECQLGEHSCGENASCTNTEGGYTCMCAGRLSEPGLICPDSTPPPHLREDDHHYSVRNSDSECPLSHDGYCLHDGVCMYIEALDKYACNCVVGYIGERCQYRDLKWWELRHAGHGQQQKVIVVAVCVVVLVMLLLLSLWGAHYYRTQKLLSKNPKNPYEESSRDVRSRRPADTEDGMSSCPQPWFVVIKEHQDLKNGGQPVAGEDGQAADGSMQPTSWRQEPQLCGMGTEQGCWIPVSSDKGSCPQVMERSFHMPSYGTQTLEGGVEKPHSLLSANPLWQQRALDPPHQMELTQ
modifications: Pro-epidermal growth factor
On to B1, for which the “induction of VCIP expression” value is recorded as “strongly induced” (A431 epidermoid carcinoma cells) and “but not to EGF” (HdMVECs).
